Data on one molecule can be found in patent US20160038588A1, “Myostatin Antagonism in Human Subjects” (AMGEN INC., priority 2013, published 2016).

The test deals with T1, myostatin (Homo sapiens, UniProt O14793).
T1 construct: To produce mature myostatin, the pooled promyostatin was enzymatically cleaved between the propeptide and mature myostatin C terminal; made in house
T1 sequence (O14793 267-375): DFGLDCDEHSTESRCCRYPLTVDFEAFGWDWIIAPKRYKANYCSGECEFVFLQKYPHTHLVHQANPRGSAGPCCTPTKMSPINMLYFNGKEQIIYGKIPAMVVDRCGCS
Kind of test: BIAcore affinity analysis on immobilized myostatin. The format is binding. As to conditions: Biacore assay. The source says: The antagonists including the binding agents described herein can be tested for their ability to bind myostatin and inhibit or block myostatin activity. Any number of assays or animal tests may be used to determine the ability of the agent to inhibit or block myostatin activity. Several assays used for characterizing the peptides and peptibodies of the present invention are described in the Examples below. One assay is the C2C12 pMARE-luc assay which makes use of a myostatin-responsive cell line (C2C12 myoblasts) transfected with a luciferase reporter vector containing myostatin/activin response elements (MARE). Exemplary peptibodies are assayed by pre-incubating a series of peptibody dilutions with myostatin, and then exposing the cells to the incubation mixture. The resulting luciferase activity is determined, and a titration curve is generated from the series of peptibody dilutions. The IC50 (the concentration of peptibody to achieve 50% inhibition of myostatin activity as measured by luciferase activity) was then determined. […]
Direct binding assays were used to screen and rank the peptibodies in order of their ability to bind to immobilized myostatin. […] Peptibody binding kinetic parameters including ka (association rate constant), kd (dissociation rate constant) and KD (dissociation equilibrium constant) were determined using the BIA evaluation 3.1 computer program (Biacore, Inc.). […]
In general terms: SPR reads the build-up and loss of mass on a sensor chip optically.

B1: ActRIIB/Fc: soluble receptor fusion protein actRIIB/Fc (R &D Systems) (protein)
chain: SGRGEAETRECIYYNANWELERTNQSGLERCEGEQDKRLHCYASWRNSSGTIELVKKGCWLDDFNCYDRQECVATEENPQVYFCCCEGNFCNERFTHLPEAGGPEVTYEPPPTAPT
modifications: left off: a dimerising Fc or GST
What is called Kd is the concentration at which binding is half-saturated. Consider B1, for which the Kd is about 7 nM.
